Source: patent US20230295324A1 (published 2023)
Like-named read-outs stand apart in the source and are kept apart here.

T1: human OX40 on cells (CHO-K1/hu OX40) (human, UniProt P43489 29-277)
T1 construct: whole, on cells; Also used here for OX40 on the HEK293/OX40/NF-kb reporter cells and on human T cells in the functional assays; also called CHO-K1/OX40; human OX40 cells
T1 sequence (looked up): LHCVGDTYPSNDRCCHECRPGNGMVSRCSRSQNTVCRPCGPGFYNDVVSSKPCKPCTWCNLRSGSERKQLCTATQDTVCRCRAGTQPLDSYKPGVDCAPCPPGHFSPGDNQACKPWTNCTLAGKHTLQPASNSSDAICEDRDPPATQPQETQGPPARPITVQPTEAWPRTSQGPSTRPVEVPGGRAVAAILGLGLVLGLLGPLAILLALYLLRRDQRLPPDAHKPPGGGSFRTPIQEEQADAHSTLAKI

T2: human OX40 protein (Acro biosystem, #OX0-H5224) (human, UniProt P43489 29-216)
T2 construct: Bought recombinant protein
T2 sequence (looked up): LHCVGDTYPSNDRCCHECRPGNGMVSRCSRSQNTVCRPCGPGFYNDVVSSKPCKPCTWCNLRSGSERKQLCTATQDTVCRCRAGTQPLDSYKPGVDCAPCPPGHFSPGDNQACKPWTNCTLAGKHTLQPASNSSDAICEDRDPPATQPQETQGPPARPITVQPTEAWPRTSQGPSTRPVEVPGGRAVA


Legend:
[1] = target: T3, human PSMA on LNCAP cells (human, UniProt Q04609 1-750); assay: FACS, LNCAP cells (human PSMA)
T3 construct: whole, on cells
T3 sequence (Q04609 whole entry): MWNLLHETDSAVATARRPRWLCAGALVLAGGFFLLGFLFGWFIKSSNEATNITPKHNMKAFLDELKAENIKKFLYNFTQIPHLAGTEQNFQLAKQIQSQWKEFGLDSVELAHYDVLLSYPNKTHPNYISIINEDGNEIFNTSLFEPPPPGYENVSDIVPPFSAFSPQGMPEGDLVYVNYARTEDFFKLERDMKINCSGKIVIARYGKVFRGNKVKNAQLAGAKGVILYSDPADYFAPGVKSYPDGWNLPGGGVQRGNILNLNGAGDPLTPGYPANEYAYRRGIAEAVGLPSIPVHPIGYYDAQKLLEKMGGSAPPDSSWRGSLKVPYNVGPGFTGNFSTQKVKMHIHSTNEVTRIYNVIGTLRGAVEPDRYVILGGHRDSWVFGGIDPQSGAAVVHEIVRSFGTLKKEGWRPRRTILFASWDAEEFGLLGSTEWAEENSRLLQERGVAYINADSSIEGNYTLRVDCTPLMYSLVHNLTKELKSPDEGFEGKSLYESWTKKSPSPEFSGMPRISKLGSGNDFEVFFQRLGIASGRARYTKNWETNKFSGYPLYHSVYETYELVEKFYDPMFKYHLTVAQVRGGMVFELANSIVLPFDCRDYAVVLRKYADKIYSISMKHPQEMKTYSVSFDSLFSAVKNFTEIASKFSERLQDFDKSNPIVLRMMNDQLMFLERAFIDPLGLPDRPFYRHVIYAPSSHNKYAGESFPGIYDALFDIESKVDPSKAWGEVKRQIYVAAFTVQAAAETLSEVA
Experimental: This example is intended to investigate the in vitro binding activity of OX40×TAA bispecific antibodies obtained in Example 9 to tumor-associated antigens (TAAs). […] Briefly, those cells were digested, resuspended in a complete medium, and washed with PBS, and the cell density was adjusted to 1×10⁶ cells/ml with PBS. The cells were seeded in a 96-well V-bottom plate (Corning, #3894) at 100 μL/well, and centrifuged, and then the supernatant was discarded. Then, the test antibodies diluted in a 3-fold gradient were added at 100 μL/well. The cells were incubated at 4° C. for 1 h away from light. Thereafter, the cells in each well were rinsed twice with 100 μL of pre-cooled PBS, and centrifuged at 500 g at 4° C. for 5 min, and then the supernatant was discarded. […] The plate was incubated away from light at 4° C. for 30 min. The cells in each well were rinsed twice with 100 μL of pre-cooled PBS, and centrifuged at 500 g at 4° C. for 5 min, and then the supernatant was discarded. Finally, the cells in each well were resuspended in 200 μL of pre-cooled PBS, and the fluorescence signal values were read using NovoCyte flow cytometer (ACEA Biosciences).

[2] = target: T1, human OX40 on cells (CHO-K1/hu OX40); assay: FACS, CHO-K1/hu OX40 cells
Experimental: This example is intended to investigate the in vitro binding activity of OX40×TAA bispecific antibodies obtained in Example 9 to human OX40. The antibody binding assay at the cellular level was performed using a CHO-K1 cell strain overexpressing human OX40 (CHO-K1/hu OX40). Briefly, CHO-K1/hu OX40 cells were digested, resuspended in an F12K complete medium, and washed with PBS, and the cell density was adjusted to 1×10⁶ cells/ml with PBS. The cells were seeded in a 96-well V-bottom plate (Corning, #3894) at 100 μL/well, followed by the addition of test antibodies diluted in a 3-fold gradient at concentrations that were 2 times the final concentrations at 100 μL/well. The cells were incubated at 4° C. for 1 h away from light. Thereafter, the cells in each well were rinsed twice with 100 μL of pre-cooled PBS, and centrifuged at 500 g at 4° C. for 5 min, and then the supernatant was discarded. […] The plate was incubated away from light at 4° C. for 30 min. The cells in each well were rinsed twice with 100 μL of pre-cooled PBS, and centrifuged at 500 g at 4° C. for 5 min, and then the supernatant was discarded. Finally, the cells in each well were resuspended in 200 μL of pre-cooled PBS, and the fluorescence signal values were read using NovoCyte flow cytometer (ACEA Biosciences).

[3] = target: T4, cynomolgus monkey OX40 protein (Novoprotein, #CB17) (cynomolgus monkey); assay: ELISA, coated cyno OX40 protein
T4 construct: Bought recombinant protein; also called cyno OX40
Experimental: (§1) This example is intended to investigate the in vitro binding activity of the anti-OX40 HCAb monoclonal antibodies prepared in Example 1 to human and cynomolgus monkey OX40 proteins. The antibody binding assay at the protein level was performed using a human OX40 protein (Acro biosystem, #OX0-H5224) and a cynomolgus monkey OX40 protein (Novoprotein, #CB17). Briefly, a 384-well plate (PerkinElmer, #6007509) was coated with 1 μg/mL human OX40 protein and a cynomolgus monkey OX40 protein dissolved in PBS at 20 μL/well, and incubated at 4° C. overnight. The next day, the 384-well plate was washed three times with PBS containing 0.05% Tween (MEDICAGO, #09-9410-100), and blocked with PBS containing 2% milk (Bio-Rad, #170-6404) at 37° C. for 1 h. […] The plate was added with a stop buffer (BBI life sciences, #E661006-0200) at 20 μL/well, and read for OD₄₅₀₋₆₅₀ values using a plate reader (Molecular Devices, model: SpectraMax Plus). The values were analyzed with Graphad 8.0 and plotted.

[4] = target: T1, human OX40 on cells (CHO-K1/hu OX40); assay: cell-based or functional assay
[5] = target: T1, human OX40 on cells (CHO-K1/hu OX40); assay: cell-based or functional assay; remark: listed apart in the source
[6] = target: T1, human OX40 on cells (CHO-K1/hu OX40); assay: FACS, blocking of biotin-human OX40L on CHO-K1/hu OX40 cells
Experimental: Briefly, the CHO-K1/hu OX40 cells were digested and resuspended in an F-12K complete medium, and the cell density was adjusted to 1×10⁶ cells/mL. The cells were seeded in a 96-well V-bottom plate (Corning, #3894) at 100 μL/well, and centrifuged, and then the supernatant was discarded. The test antigen-binding proteins diluted in a 3-fold gradient at concentrations that were 2 times the final concentrations were added at 100 μL/well, and the mixture was well mixed, wherein the antigen-binding protein had the highest final concentration of 100 nM, and a total of 8 concentrations were obtained. […] The cells were incubated at 4° C. for 1 h away from light. Thereafter, the cells were centrifuged at 4° C. for 5 min, and then the supernatant was discarded. […] The cells in each well were rinsed twice with 100 μL of pre-cooled PBS, and centrifuged at 500 g at 4° C. for 5 min, and then the supernatant was discarded. A 1:200 fluorescent secondary antibody PE Streptavidin (BD Biosciences, #554061) was added at 100 μL/well, and the cells were incubated away from light at 4° C. for 30 min. The cells in each well were rinsed twice with 200 μL of pre-cooled PBS, and centrifuged at 500 g at 4° C. for 5 min, and then the supernatant was discarded. Finally, the cells in each well were resuspended in 200 μL of precooled PBS. Fluorescence signal values were read using BD FACS CANTOII, and IC50 was calculated. Inhibition rate %={average MFI of non-blocking control well−MFI value of OX40 antibody}/{(average MFI of non-blocking control well)−average MFI of 100% blocking control well)}×100%.

[7] = target: T4, cynomolgus monkey OX40 protein …; assay: BLI, antibody on ProA sensor, 1:1 global fit
Experimental: (§2) The binding kinetics between the antigen and the antibody was analyzed by the Biolayer Interferometry (BLI) technique using an Octet Red 96e molecular interaction analyzer (Fortebio).
(§3) The association and dissociation signals between the OX40 antibodies and OX40 proteins were recorded by Octet Red 96 in real time. When data analysis was performed using Octet Data Analysis software (Fortebio, version 11.0), 0 nM was used as a reference hole, and reference subtraction was performed; the “1:1 Global fitting” method was selected to fit the data, and the kinetics parameters of the binding of antigens to antigen-binding proteins were calculated, with kon(1/Ms) values, kdis(1/s) values and KD(M) values obtained.

[8] = target: T2, human OX40 protein (Acro biosystem, …); assay: BLI, antibody on ProA sensor, 1:1 global fit
Experimental: as §2, §3

[9] = target: T1, human OX40 on cells (CHO-K1/hu OX40); assay: FACS, CHO-K1/hu OX40 cells; remark: listed apart in the source
Experimental: This example is intended to investigate the in vitro binding activity of anti-human OX40 HCAb monoclonal antibodies to human OX40. The antibody binding assay at the cellular level was performed using a stable CHO-K1 cell strain overexpressing human OX40 (CHO-K1/hu OX40). Briefly, the CHO-K1/hu OX40 cells were digested, resuspended in an F12K complete medium and washed once with PBS. The cell density was adjusted to 1×10⁶ cells/mL with PBS. The cells were seeded in a 96-well V-bottom plate (Corning, #3894) at 100 μL/well, and centrifuged, and then the supernatant was discarded. Then, the test antibodies diluted in a 3-fold gradient at concentrations that were 2 times the final concentrations were added at 100 μL/well. The cells were incubated at 4° C. for 1 h away from light. Thereafter, the cells in each well were rinsed twice with 100 μL of pre-cooled PBS, and centrifuged at 500 g at 4° C. for 5 min, and then the supernatant was discarded. […] The plate was incubated away from light at 4° C. for 30 min. The cells in each well were rinsed twice with 100 μL of pre-cooled PBS, and centrifuged at 500 g at 4° C. for 5 min, and then the supernatant was discarded. Finally, the cells in each well were resuspended in 200 μL of pre-cooled PBS, and the fluorescence signal values were read using a BD FACS CANTOII.

[10] = target: T2, human OX40 protein (Acro biosystem, …); assay: ELISA, coated human OX40 protein
Experimental: as §1

EC50 [1] [nM] | EC50 [3] [nM] | Maximum OD [3] [OD] | EC50, HEK293/OX40/NF-kb luciferase reporter [5] [nM] | Maximum fluorescence signal value, HEK293/OX40/NF-kb luciferase reporter [5] [luminescence] | IC50 [6] [nM] | Maximum inhibition rate (%) [6] [%] | Kd [7] [nM] | koff [7] [s⁻¹] | kon [7] [M⁻¹ s⁻¹] | Kd [8] [nM] | koff [8] [s⁻¹] | kon [8] [M⁻¹ s⁻¹] | EC50 [9] [nM] | Maximum MFI [9] [MFI] | EC50 [10] [nM] | Maximum OD [10] [OD] | Binder | other results
6.7 |  |  |  |  |  |  |  |  |  |  |  |  |  |  |  |  | PR004284 (bispecific antibody, human IgG1, kappa, L234A L235A, IgG-VH tetravalent symmetric structure: PR001331 IgG (anti-PSMA) with the VH of PR002067 via linker H1_15-RT; human IgG1 Fc (L234A, L235A); also called PSMAxOX40 bispecific antibody) light: DIQMTQSPSSLSASIGDRVTITCRASQSINSYLNWYQQKPGKAPKLLIYTASSLLSGVPSRFSASGSWTDFSLTISSLQPEDFATYYCQQSFSTPYTFGQGTNLEIKRTVAAPSVFIFPPSDEQLKSGTASVVCLLNNFYPREAKVQWKVDNALQSGNSQESVTEQDSKDSTYSLSSTLTLSKADYEKHKVYACEVTHQGLSSPVTKSFNRGEC heavy: not shown | EC50 [2]: 4.96 nM; Maximum MFI [2]: 287000 MFI
3.02 |  |  |  |  |  |  |  |  |  |  |  |  |  |  |  |  | PR000327 (antibody, V domains shown) VH: QVQLVESGGGLVKPGESLRLSCAASGFTFSDYYMYWVRQAPGKGLEWVAIISDGGYYTYYSDIIKGRFTISRDNAKNSLYLQMNSLKAEDTAVYYCARGFPLLRHGAMDYWGQGTLVTVSS VL: DIQMTQSPSSLSASVGDRVTITCKASQNVDTNVAWYQQKPGQAPKSLIYSASYRYSDVPSRFSGSASGTDFTLTISSVQSEDFATYYCQQYDSYPYTFGGGTKLEIK | 
 | 0.37 | 2.44 | 5.45 | 147000 | 67.6 | 58 | 22.7 | 0.00097 | 42700 | 8.71 | 0.000387 | 44400 | 4.67 | 3010 | 0.118 | 2.47 | PR002066 (antibody, human IgG1, V domains shown, no light chain; also called anti-OX40 HCAb antibody) VH: EVQLLESGGGLVQPGGSLRLSCIASGFTFSSYAMSWVRQAPGKGLEWVSAISGRGGSTFYADSVRGRFTISRDNSKNTLYLQMNSLRAEDTAVYYCANGMTGTTDVDYWGQGTQVTVSS | EC50, IFN-γ release by human T cells with OKT3 and CHO-K1-CD32b cells [4]: 0.031 nM; Maximum IFN-γ release value [4]: 1870
 | 0.441 | 2.73 | 3.51 | 113000 | 41.1 | 34 | 22.1 | 0.000722 | 32700 | 10.6 | 0.000364 | 34300 | 7.22 | 3980 | 0.146 | 2.67 | PR002077 (antibody, human IgG1, V domains shown, no light chain; also called anti-OX40 HCAb antibody) VH: EVQLLESGGGLVQPGGSLRLSCAASGFTFSSYAMSWVRQAPGKGLEWVSAISGRGNITFYADSVRGRFTISRDNSKNTLYLQMNSLRAEDTAVYYCANGITGTTDVDYWGQGTLVTVSS | 
2.58 |  |  |  |  |  |  |  |  |  |  |  |  |  |  |  |  | PR001331 (antibody, human IgG1, kappa, V domains shown, H2L2 parental antibody against PSMA; also called anti-PSMA H2L2 antibody) VH: QVQLVESGGGVVQPGRSLRLSCSASGFTFINYGMNWVRQAPGKGLEWVAVIWYDGSNKYYADSVRGRFTISRDNSKNTLYLQMNSLRAEDTAVYYCARGPGYGGHSDAFDIWGQGTMVTVSS VL: DIQMTQSPSSLSASIGDRVTITCRASQSINSYLNWYQQKPGKAPKLLIYTASSLLSGVPSRFSASGSWTDFSLTISSLQPEDFATYYCQQSFSTPYTFGQGTNLEIKR | 
